According to US10117886B2, “Hyaluronidase and a low density second PEG layer on the surface of therapeutic-encapsulated nanoparticles to enhance nanoparticle diffusion and circulation” (priority 2014, dated 2018):
Structures can show the parent of a compound that is named as a salt. Where two headings read alike, the source gives them in different places.

B1: free PH20: recombinant human hyaluronidase PH20 obtained from Halozyme, Inc, unconjugated (protein, UniProt P38567 36-490, looked up)
Hyaluronidase PH-20: LNFRAPPVIPNVPFLWAWNAPSEFCLGKFDEPLDMSLFSFIGSPRINATGQGVTIFYVDRLGYYPYIDSITGVTVNGGIPQKISLQDHLDKAKKDITFYMPVDNLGMAVIDWEEWRPTWARNWKPKDVYKNRSIELVQQQNVQLSLTEATEKAKQEFEKAGKDFLVETIKLGKLLRPNHLWGYYLFPDCYNHHYKKPGYNGSCFNVEIKRNDDLSWLWNESTALYPSIYLNTQQSPVAATLYVRNRVREAIRVSKIPDAKSPLPVFAYTRIVFTDQVLKFLSQDELVYTFGETVALGASGIVIWGTLSIMRSMKSCLLLDNYMETILNPYIINVTLAAKMCSQVLCQEQGVCIRKNWNSSDYLHLNPDNFAIQLEKGGKFTVRGKPTLEDLEQFSEKFYCSCYSTLSCKEKADVKDTDAVDVCIADGVCIDAFLKPPMETEEPQIFYNASPSTLS

Assays:
[1] = system: 4T1 tumors; test: Antitumor efficacy in mouse 4T1 syngeneic breast tumor model; type: in vivo; settings: 2 mg/kg DOX; (MST treated/MST control −1)×100
Procedure: Efficacy of the nanoparticles produced in Example 2 was evaluated in a mouse 4T1 syngeneic breast tumor model, in which the host BALB/c mouse is immune-competent, and the tumor growth and metastatic spread of 4T1 cells closely mimic human breast cancer. Female BALB/c mice at 6 weeks were ordered and within a one-week stay, 50 μL of 1×10^7 4 T1 cells/mL in PBS was injected at the mammary fat pad on the right flank of the mice. Tumor size was calculated using V=0.5×width^2×length.
The nanoparticles with encapsulated DOX produced in Example 2 were used to treat tumors in a mouse 4T1 syngeneic breast tumor model BALB/c mice. The mice were randomly assigned into 4 groups and injected with saline, free DOX in saline, DOX-PLGA-PEG-NPs and DOX-PLGA-PEG-PH20-NPs (PH20 activity of DOX-PLGA-PEG-PH20-NPs is 500 U/mouse) at 2 mg/kg mice of DOX at 9, 11, 14, 17, 20 days after inoculation of 4T1 cells in the mice. The tumors reached a size of 150-250 mm^3 at day 9 before treatment. Tumor sizes were monitored throughout the whole study (FIG. 14A). The survival rate was studied based on the number of mice in each group that survived over time. MST (day) was defined as the time at which half of the mice had died.
The percentage ILS (%) was calculated using the following equation: ILS (%)=[(MST of treated group/MST of control group) −1]*100. […]

[2] = system: pericellular HA matrix of 4T1 cells; test: Degradation of pericellular HA of 4T1 cells (HA staining, RBC exclusion assay); type: cell-based, mouse
Procedure: The nanoparticles produced in Example 2 were tested on tumor cell line 4T1, which synthesizes HA and forms a layer of HA matrix around the cells. 4T1 cells were maintained in a RPMI-1640 medium (ATCC) containing 10% fetal bovine serum in 5% CO2 in an incubator at 37° C. 4T1 cells were cultured on round glass coverslips in a 12-well plate for one day to reach 70% confluency before treatment with the nanoparticles. DiD-labeled PLGA-PEG-NPs (no PH20 activity) and DiD-labeled PLGA-PEG-PH20-NPs (conjugated 10 U/mL PH20 activity) were used for this test. The amount of nanoparticles in all samples was equalized via fluorescence intensity. […]
The 4T1 cells were then washed and fixed and observed under a confocal microscope (Olympus IX81, 60×, C.A.=80 μm) with 405 nm and 635 nm lasers for DAPI and DiD respectively. […] The total fluorescence intensity of DiD was quantified via Image J and averaged by the number of cells.
RBCs were collected fresh from mice and washed three times with PBS before being resuspended in 2% formaldehyde in PBS for fixation of the RBCs overnight at room temperature. […] The areas of exclusion (no RBCs) were quantified through ImageJ. […]

[3] = system: pericellular HA layer around PC3 cells; test: Degradation of pericellular HA layer around PC3 cells by free PH20; type: cell-based, human; settings: 1000 U of free PH20 for 1 h
[4] = free PH20, cited from earlier work

| Molecule | percentage increased life span ILS (%) [1] [%] | amount of HA around 4T1 cells, RBC exclusion ([2]; 1000 U/mL of PH20, 2 h, 37° C.) | degradation of pericellular HA layer around 4T1 cells ([2]; 3000 U of free PH20 for 1 h) | degradation of pericellular HA layer [3] | circulation half-life [4] | circulation half-life ([4]; listed as PH20) [min] |
| --- | --- | --- | --- | --- | --- | --- |
| COc1cccc2c1C(=O)c1c(O)c3c(c(O)c1C2=O)C[C@@](O)(C(=O)CO)C[C@@H]3O[C@H]1C[C@H](N)[C@H](O)[C@H](C)O1 [Free DOX, Doxorubicin Hydrochloride salt] | 10 | – | – | – | – | – |
| B1 | – | reduced to a low level that could no longer block RBCs | sufficient to degrade the pericellular HA layer around 4T1 cells | sufficient to degrade the pericellular HA layer around PC3 cells | less than 3 min | 3 |
